B1: Pre-mRNA-splicing factor CWC26 (Saccharomyces cerevisiae), P46947 (parent)
chain: MALHQYLSETYGPTKPKNKTKKKKKESKSDANSDKTSLIVKERLSTLQQEQEKSGVASFSKFDKQKSKNIWKNLETNELSHAITHPSASSITGNESKNDLKEIRAQEPLVTVADKSKTRKTIYRDAQGHKIQEDSKIDDSSFSRSKYEDEKAAEREQYLKNLNMGDVQKLGINVDAHDKKKNQTASSLTIEDPAITFTHDKERTVKTSLLGRKLYDKPAPENRFAIMPGSRWDGVHRSNGFEEKWFAKQNEINEKKVQSYTLQEDY
partner: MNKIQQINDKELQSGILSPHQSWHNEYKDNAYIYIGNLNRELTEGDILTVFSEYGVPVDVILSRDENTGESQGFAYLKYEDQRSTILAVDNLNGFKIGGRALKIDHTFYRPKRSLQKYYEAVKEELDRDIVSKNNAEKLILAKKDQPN
B2: Pre-mRNA leakage protein 1 (Saccharomyces cerevisiae), Q07930 (parent)
chain: MFHRRKRPYNTRNYGHDDKKFKSQYIDIMPDFSPSGLLELESNNKEGIALKHVEPQDAISPDNYMDMLGLEARDRTMYELVIYRKNDKDKGPWKRYDLNGRSCYLVGRELGHSLDTDLDDRTEIVVADIGIPEETSSKQHCVIQFRNVRGILKCYVMDLDSSNGTCLNNVVIPGARYIELRSGDVLTLSEFEEDNDYELIFMNV
partner: B1 partner

Variants of: B1
Settings: with ist3_yeast IST3, P40565

effect of a mutation on the interaction | Variant
decreasing interaction strength | V235A
disrupting interaction strength | R237A

The next lines start with the variant.

Variant | effect of a mutation on the interaction
W232A | disrupting interaction strength
F224A | decreasing interaction strength

Variants of: B2
Settings: with ist3_yeast IST3, P40565

effect of a mutation on the interaction | Variant
decreasing interaction strength | L38A
disrupting interaction strength | F32A

From IntAct's records for PubMed 25218446
